According to patent US20240002497A1 (Merck Sharp & Dohme, published 2024):
Substitutions are numbered along the chain they refer to. In names and notes the source's numbering stands.

Columns and labels:
huNav1.7α + β1-β2-β3 [1] = biological target: T1, huNav1.7α + β1-β2-β3 (human, UniProt Q15858 1-1988; A5A6L6 19-218; O60939 30-215; Q2KI11 23-215); test: cell-based or functional assay
Rhesus Nav1.7α = Rhesus Nav1.7α (rhesus, UniProt Q15858 1-1988 (human entry)); test: cell-based or functional assay
rhNav1.7α + β1-β2-β3 [2] = biological target: rhNav1.7α + β1-β2-β3 (rhesus monkey); test: cell-based or functional assay
huNav1.7α [3] = biological target: T2, huNav1.7α (human, UniProt Q15858 1-1988); test: cell-based or functional assay
huNav1.7α + β1 = biological target: T3, huNav1.7α + β1 (human); test: competition FACS vs EC25 of F103275B05(N93R), HEK
T3 construct: HEK293 cells; also called huNav1.7-beta1; huNav1.7-β1

huNav1.7α [4] = biological target: T2, huNav1.7α; test: competition FACS vs EC25 of F103275B05(N93R), HEK
huNav1.7α + β1-β2-β3 [5] = biological target: T1, huNav1.7α + β1-β2-β3; test: competition FACS vs EC25 of F103275B05(N93R), CHO FlpIn
huNav1.7α + β1-β2-β3 [6] = biological target: T1, huNav1.7α + β1-β2-β3; test: competition FACS vs EC25 of F103275B05(N93R), HEK FlpIn
rhNav1.7α + β1-β2-β3 [7] = biological target: T4, rhNav1.7α + β1-β2-β3 (rhesus monkey); test: competition FACS vs EC40 of F103275B05(N93R), CHO FlpIn
T4 construct: also called rhNav1.7-beta1-beta2-beta3; rhNav1.7-β1-β2-β3

huNav1.7α+β1 = biological target: T5, huNav1.7α+β1 (human, UniProt Q15858 1-1988; Q07699 19-218); test: binding FACS, HEK293 cells
T5 construct: also called huNav1.7-beta1; HEKa/β1
Method: (§1) Binding of the ISVDs to cell-expressed Nav1.7α was detected via murine anti-Flag (Sigma, catalog #F1804). Briefly, cells were resuspended in FACS buffer (PBS, 10% FBS, NaN₃) and transferred to a 96-well V-bottom plate at 1×10^5 cells/well. Purified FLAG3-tagged ISVD was diluted in FACS buffer and added to the cells for 30 minutes at 4° C. […] Prior to the read-out, the samples were resuspended in 1 μg/mL propidium iodide (Sigma, catalog #P4170) to exclude dead cells. Between each step, the cells were centrifuged for 5 minutes at 200 grams and washed with 100 μL/well FACS buffer.
(§2) Crude periplasmic extracts containing ISVDs from phage display selections (as described above) were screened in FACS for binding to huNav1.7α but not to huNav1.5a. […] As used in Table 8, the drawings, and throughout the description, Navβ1, Navβ2, and Navβ3 are human homologs unless specifically identified otherwise.

huNav1.7α+β1-β2-β3 [8] = biological target: T6, huNav1.7α+β1-β2-β3 (human, UniProt Q15858 1-1988; Q07699 19-218; O60939 30-215; Q9NY72 23-215); test: binding FACS, CHO FlpIn cells
T6 construct: 5N11S variant; also called huNav1.7-beta1-beta2-beta3; huNav1.7α+Navβ1-Navβ2-Navβ3
Method: as §1, §2

rhNav1.7α+β1-β2-β3 = biological target: T7, rhNav1.7α+β1-β2-β3 (rhesus monkey α subunit with human β …); test: binding FACS, CHO FlpIn cells
T7 construct: P2A cleaves it into α, β1, β2, β3; also called rhNav1.7-beta1-beta2-beta3
Method: as §1, §2

huNav1.7α+β1-β2-β3 [9] = biological target: T6, huNav1.7α+β1-β2-β3; test: binding FACS, HEK FlpIn cells
Method: as §1, §2

[10] = biological target: T8, huNav157chimera14+β1-β2-β3 (human, UniProt Q07699 19-218; O60939 30-215; Q9NY72 23-215); test: binding FACS, HEK FlpIn cells
T8 construct: HEK FlpIn line; also called huNav157 chimera 14-beta1-beta2-beta3; Nav157ch14-β1-β2-β3
Method: as §1, §2

huNav1.5α+β1-β2-β3 = biological target: T9, huNav1.5α+β1-β2-β3 (human, UniProt Q14524 1-2016; A5A6L6 19-218; O60939 30-215; Q2KI11 23-215); test: binding FACS, HEK FlpIn cells
T9 construct: in the cell P2A cleaves it into α, β1, β2, β3; also called huNav1.5-beta1-beta2-beta3
Method: as §1, §2

[11] = biological target: T10, huNav1.7(N146S, V194I, F276V, R277Q, E281V, V331M, E504D, D507E, S508N, N533S)-β1-β2-β3 (human, UniProt Q15858 1-1988; Q07699 19-218; O60939 30-215; Q9NY72 23-215); test: FACS on transiently transfected HEK293T cells
T10 construct: Transiently on HEK293T cells; The text prints V1941 for V194I; also called chimeric variant of huNav1.7α with all DI huNav1.7α-rhNav1.7α polymorphisms
Method: as §1
FACS binding studies (as described above) were performed on HEK293T cells transiently transfected with a chimeric variant of huNav1.7α in which all the huNav1.7α-rhNav1.7α polymorphisms of DI are present (N146S, V1941, F276V, R277Q, E281V, V331M, E504D, D507E, S508N, N533S). Replacing the huNav1.7α DI sequence for that of rhNav1.7α is sufficient to abolish the binding of F0103262CO2, F0103265B04, F0103262B06, and F0103265A11 to huNav1.7α, recapitulating the absence of binding on rhNav1.7α (see FIGS. 21A-21B).

huNav1.3α = biological target: T11, huNav1.3α (human, UniProt Q9NY46 1-2000); test: binding FACS on stable huNav1.x paralog HEK293T cell lines
T11 construct: also called huNav1.3 (alpha subunit)

huNav1.4α = biological target: T12, huNav1.4α (human, UniProt P35499 1-1836); test: as above
T12 construct: also called huNav1.4 (alpha subunit)

huNav1.5α = biological target: T13, huNav1.5α (human, UniProt Q14524 1-2016); test: as above
T13 construct: also called huNav1.5 (alpha subunit)

huNav1.6α = biological target: T14, huNav1.6α (human, UniProt Q9UQD0 1-1980); test: as above
T14 construct: also called huNav1.6 (alpha subunit)

huNav1.8α = biological target: T15, huNav1.8α (human, UniProt Q9Y5Y9 1-1956); test: as above
T15 construct: also called huNav1.8 (alpha subunit)
T15 sequence (Q9Y5Y9 whole entry): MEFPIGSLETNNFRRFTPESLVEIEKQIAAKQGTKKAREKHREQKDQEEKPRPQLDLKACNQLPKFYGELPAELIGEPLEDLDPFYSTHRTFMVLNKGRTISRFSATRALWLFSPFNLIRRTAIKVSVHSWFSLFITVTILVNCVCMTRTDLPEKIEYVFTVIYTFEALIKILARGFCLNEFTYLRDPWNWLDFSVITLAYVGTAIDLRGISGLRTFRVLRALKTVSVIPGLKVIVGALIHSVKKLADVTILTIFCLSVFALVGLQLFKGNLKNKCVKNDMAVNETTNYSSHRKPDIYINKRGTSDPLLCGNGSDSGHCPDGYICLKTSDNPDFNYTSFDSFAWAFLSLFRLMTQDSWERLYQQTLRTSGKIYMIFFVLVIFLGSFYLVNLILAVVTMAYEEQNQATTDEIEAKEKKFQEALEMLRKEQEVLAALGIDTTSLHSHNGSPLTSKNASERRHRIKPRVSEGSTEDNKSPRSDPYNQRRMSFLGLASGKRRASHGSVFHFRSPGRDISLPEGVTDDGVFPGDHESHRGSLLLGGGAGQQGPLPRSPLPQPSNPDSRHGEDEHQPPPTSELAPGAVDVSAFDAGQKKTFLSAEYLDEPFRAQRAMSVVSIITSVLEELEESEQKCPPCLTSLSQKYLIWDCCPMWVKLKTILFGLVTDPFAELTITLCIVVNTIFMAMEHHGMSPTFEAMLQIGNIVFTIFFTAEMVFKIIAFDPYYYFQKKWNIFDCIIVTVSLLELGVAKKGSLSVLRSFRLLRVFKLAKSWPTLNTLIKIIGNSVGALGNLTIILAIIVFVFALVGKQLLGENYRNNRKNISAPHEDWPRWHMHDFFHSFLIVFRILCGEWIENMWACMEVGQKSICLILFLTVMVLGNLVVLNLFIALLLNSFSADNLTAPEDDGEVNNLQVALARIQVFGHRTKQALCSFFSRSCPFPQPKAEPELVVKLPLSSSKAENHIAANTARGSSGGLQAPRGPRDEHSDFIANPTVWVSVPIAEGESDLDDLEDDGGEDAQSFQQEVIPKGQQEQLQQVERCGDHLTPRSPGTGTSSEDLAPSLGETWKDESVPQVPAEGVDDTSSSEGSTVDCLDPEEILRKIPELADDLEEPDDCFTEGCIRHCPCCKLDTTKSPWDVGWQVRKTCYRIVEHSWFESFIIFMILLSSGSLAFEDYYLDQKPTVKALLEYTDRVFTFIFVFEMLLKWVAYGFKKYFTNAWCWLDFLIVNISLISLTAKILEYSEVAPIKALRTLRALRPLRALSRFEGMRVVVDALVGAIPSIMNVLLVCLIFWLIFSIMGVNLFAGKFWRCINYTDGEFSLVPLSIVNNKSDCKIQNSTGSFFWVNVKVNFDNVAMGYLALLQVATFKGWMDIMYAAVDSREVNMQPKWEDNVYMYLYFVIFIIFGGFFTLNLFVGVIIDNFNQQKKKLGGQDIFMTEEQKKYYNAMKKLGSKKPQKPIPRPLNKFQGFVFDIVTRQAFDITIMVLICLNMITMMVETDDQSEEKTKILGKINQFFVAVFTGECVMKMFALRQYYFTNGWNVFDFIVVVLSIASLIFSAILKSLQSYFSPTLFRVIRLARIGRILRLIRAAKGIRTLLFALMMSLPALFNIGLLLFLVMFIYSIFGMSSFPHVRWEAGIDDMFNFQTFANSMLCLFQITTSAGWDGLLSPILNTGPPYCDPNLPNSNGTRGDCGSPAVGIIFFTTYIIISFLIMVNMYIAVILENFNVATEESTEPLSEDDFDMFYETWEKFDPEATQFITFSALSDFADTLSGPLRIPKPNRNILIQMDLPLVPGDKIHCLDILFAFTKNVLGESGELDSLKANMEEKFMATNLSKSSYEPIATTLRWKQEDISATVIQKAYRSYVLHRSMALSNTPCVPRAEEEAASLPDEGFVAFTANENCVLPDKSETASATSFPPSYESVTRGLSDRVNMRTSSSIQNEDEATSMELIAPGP

huNav1.1α = huNav1.1α (human, UniProt P35498 1-2009); test: as above
huNav1.2α = biological target: T16, huNav1.2α (human, UniProt Q99250 1-2005); test: as above
T16 construct: also called huNav1.2 (alpha subunit)
T16 sequence (Q99250 whole entry): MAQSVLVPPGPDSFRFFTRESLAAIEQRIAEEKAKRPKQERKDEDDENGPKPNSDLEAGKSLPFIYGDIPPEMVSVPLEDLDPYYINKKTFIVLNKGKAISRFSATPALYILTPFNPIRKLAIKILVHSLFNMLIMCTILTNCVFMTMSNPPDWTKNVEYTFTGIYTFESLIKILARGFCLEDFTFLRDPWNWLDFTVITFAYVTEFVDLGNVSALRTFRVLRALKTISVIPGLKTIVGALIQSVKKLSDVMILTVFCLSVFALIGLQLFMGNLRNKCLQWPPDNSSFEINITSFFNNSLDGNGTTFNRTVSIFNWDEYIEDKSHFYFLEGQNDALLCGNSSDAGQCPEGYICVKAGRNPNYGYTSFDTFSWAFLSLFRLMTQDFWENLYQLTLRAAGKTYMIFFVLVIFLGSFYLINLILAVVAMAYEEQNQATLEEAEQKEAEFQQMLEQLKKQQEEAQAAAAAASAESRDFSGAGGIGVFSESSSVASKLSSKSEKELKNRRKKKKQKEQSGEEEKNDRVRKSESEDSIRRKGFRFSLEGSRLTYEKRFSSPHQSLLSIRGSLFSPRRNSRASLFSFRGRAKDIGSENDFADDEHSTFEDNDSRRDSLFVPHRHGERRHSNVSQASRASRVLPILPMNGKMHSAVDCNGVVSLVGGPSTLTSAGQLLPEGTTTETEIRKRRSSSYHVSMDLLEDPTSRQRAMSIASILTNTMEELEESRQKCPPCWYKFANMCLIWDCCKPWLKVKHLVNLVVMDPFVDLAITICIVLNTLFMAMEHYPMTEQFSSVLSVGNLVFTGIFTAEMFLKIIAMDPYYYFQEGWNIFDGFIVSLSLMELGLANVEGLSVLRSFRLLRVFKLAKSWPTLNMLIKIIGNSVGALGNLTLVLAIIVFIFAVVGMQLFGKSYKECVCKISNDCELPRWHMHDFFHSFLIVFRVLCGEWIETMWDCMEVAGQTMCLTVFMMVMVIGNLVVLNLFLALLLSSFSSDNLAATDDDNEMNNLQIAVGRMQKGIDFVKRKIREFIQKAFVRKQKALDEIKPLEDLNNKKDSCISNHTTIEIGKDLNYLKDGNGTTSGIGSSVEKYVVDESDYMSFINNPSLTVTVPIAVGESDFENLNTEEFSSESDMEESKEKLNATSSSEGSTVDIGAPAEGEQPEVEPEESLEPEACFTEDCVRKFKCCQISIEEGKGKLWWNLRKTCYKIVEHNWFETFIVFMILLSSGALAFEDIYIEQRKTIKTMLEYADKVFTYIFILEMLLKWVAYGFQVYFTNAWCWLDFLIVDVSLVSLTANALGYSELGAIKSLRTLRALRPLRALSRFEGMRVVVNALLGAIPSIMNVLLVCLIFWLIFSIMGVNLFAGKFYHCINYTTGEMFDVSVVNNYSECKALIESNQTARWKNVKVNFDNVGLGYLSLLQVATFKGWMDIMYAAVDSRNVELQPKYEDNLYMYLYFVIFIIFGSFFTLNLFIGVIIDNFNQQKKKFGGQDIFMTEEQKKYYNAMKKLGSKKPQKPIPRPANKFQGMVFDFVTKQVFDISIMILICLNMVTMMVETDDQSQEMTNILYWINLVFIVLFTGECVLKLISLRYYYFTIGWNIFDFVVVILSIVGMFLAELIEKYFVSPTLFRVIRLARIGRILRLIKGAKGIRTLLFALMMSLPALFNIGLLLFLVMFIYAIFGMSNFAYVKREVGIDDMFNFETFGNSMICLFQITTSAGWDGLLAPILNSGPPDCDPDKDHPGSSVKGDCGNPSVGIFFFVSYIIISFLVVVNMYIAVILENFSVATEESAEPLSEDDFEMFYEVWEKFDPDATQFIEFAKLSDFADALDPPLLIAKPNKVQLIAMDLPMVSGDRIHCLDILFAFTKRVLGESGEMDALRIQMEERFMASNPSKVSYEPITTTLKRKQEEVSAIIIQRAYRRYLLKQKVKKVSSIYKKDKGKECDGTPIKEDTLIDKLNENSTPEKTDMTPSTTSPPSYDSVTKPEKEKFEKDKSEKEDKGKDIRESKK

[12] = biological target: T17, rhNav1.7α + β1-β2-β3 (rhesus Nav1.7α co-expressed with Navβ1, Navβ2 and Navβ3) (rhesus monkey); test: binding FACS; plus = higher activity than reference
T17 construct: also called rhNav1.7-beta1-beta2-beta3

B1: F010302377 (bispecific antibody)
chain: DVQLVESGGGLVQPGGSLRLSCAASGSIFNINSMAWYRRAPGKQRELVASSTNGGSTNYADSVKGRFTISRDNAKRVYLQMNSLTPEDTAVYYCRALLQPSIYDISRTYWGQGTLVTVSSGGGGSGGGGSGGGGSGGGGSGGGGSGGGGSGGGGSGGGGSGGGGSGGGGSEVQLVESGGGLVQAGGSLRLSCAASKSILSFAYMRWYRQAPGKQREFVASIAIGGATSYTDSVKGRFTISRDNAKNTVYLQMNSLKPEDTAVYYCSAPAGQYRGQGTLVTVSSGAADYKDHDGDYKDHDIDYKDDDDKGAAHHHHHH
notes: also called F0103275B05(E1D, N93R)-50GS-F0103492E09-FLAG3-HIS6
huNav1.7α + β1-β2-β3 [1]
  Qpatch IC50: 0.8 nM
Rhesus Nav1.7α
  Qpatch IC50: 104 nM
rhNav1.7α + β1-β2-β3 [2]
  Qpatch IC50: 75 nM
huNav1.7α [3]
  Qpatch IC50: 74 nM
huNav1.7α + β1
  IC50: 140 nM
huNav1.7α [4]
  IC50: 86 nM
huNav1.7α + β1-β2-β3 [5]
  IC50: 4.1 nM
huNav1.7α + β1-β2-β3 [6]
  IC50: 5.2 nM
rhNav1.7α + β1-β2-β3 [7]
  IC50: 1.2 nM

B2: F010302379 (bispecific antibody)
chain: DVQLVESGGGLVQPGGSLRLSCAASGSIFNINSMAWYRRAPGKQRELVASSTNGGSTNYADSVKGRFTISRDNAKRVYLQMNSLTPEDTAVYYCRALLQPSIYDISRTYWGQGTLVTVSSGGGGSGGGGSGGGGSGGGGSGGGGSGGGGSGGGGSGGGGSGGGGSGGGGSEVQLVESGGGLVQAGGSLRLSCAASGRTFSRYQMGWFRQAPGKEREFVAYISWSGSTRYVDSVKGRFTISRDNAKNTVYLQMNSLKPEDTAVYHCAAGTAGIISSRPETYDSWGQGTQVTVSSGAADYKDHDGDYKDHDIDYKDDDDKGAAHHHHHH
notes: also called F0103275B05(E1D, N93R)-50GS-F0103500E03(P14A, L108Q)-FLAG3-HIS6
huNav1.7α + β1-β2-β3 [1]
  Qpatch IC50: 3.4 nM
Rhesus Nav1.7α
  Qpatch IC50: 133 nM
rhNav1.7α + β1-β2-β3 [2]
  Qpatch IC50: 131 nM
huNav1.7α [3]
  Qpatch IC50: 111 nM
huNav1.7α + β1
  IC50: 150 nM
huNav1.7α [4]
  IC50: 85 nM
huNav1.7α + β1-β2-β3 [5]
  IC50: 19 nM
huNav1.7α + β1-β2-β3 [6]
  IC50: 16 nM
rhNav1.7α + β1-β2-β3 [7]
  IC50: 4.8 nM

B3: F0103265B04 (parental)-FLAG-HIS6 (VHH)
VHH: EVQLVESGGGLVQPGGSLRLSCAAPSFIFSNNYMEWYRQAPGKQRDWVARITGRGNTNYLDSVKGRFTISRDDAKNTVYLEIDSLKPEDTAVYYCSALWYGGRAWGKGTLVTVSS
huNav1.7α+β1
  EC50: 5.5 nM
huNav1.7α+β1-β2-β3 [8]
  EC50: 5.4 nM
rhNav1.7α+β1-β2-β3
  binding result: no binding
huNav1.7α+β1-β2-β3 [9]
  EC50: 8.1 nM
[10]
  EC50: 8.5 nM
huNav1.5α+β1-β2-β3
  binding result: no binding
[11]
  binding result: no binding (tested: 1 µM)
huNav1.3α
  binding result: no binding
huNav1.4α
  binding result: no binding
huNav1.5α
  binding result: no binding
huNav1.6α
  binding result: no binding
huNav1.8α
  binding result: no binding
huNav1.1α
  binding result: no binding
huNav1.2α
  binding result: no binding

B4: F010301886 (VHH)
VHH: EVQLVESGGGLVQPGGSLRLSCATTSRAFIRDVFTGWYRRVPGKERELVARIYNGGNTQYADFAKGRFSISRDNAKKMVTLRMSNLKPEDTGVYYCLFSGTINTGREYRSGDYWGQGTLVTVSS
notes: also called F0103464B09(N58Q); N58Q
[12]
  EC50 fold change compared to reference: 2 fold

B5: F010301888 (VHH)
VHH: B4 VHH with S26H, Q59N
notes: also called F0103464B09(S26H); S26H
[12]
  EC50 fold change compared to reference: 3 fold

B6: F010301892 (VHH)
VHH: B4 VHH with V33L, Q59N
notes: also called F0103464B09(V33L); V33L
[12]
  EC50 fold change compared to reference: 3 fold

B7: F0103262C02 (parental)-FLAG-HIS6 (VHH)
VHH: EVQLVESGGGLVQAGGSLTLSCAASGLPFGLYILGWIRRAPGKERDFVAAISRSGRDTVYANSVKGRFTISRDNAKNMVYLRMDNLRPEDTAAYYCAVDSVPRGTPTITESEYAIWGQGTLVTVSS
notes: also called F0103262CO2; F103262CO2
huNav1.7α+β1
  EC50: 180 nM
huNav1.7α+β1-β2-β3 [8]
  EC50: 320 nM
rhNav1.7α+β1-β2-β3
  binding result: no binding
huNav1.7α+β1-β2-β3 [9]
  EC50: 380 nM
[10]
  EC50: 470 nM
huNav1.5α+β1-β2-β3
  binding result: no binding
[11]
  binding result: no binding (tested: 1 µM)
huNav1.3α
  binding result: no binding
huNav1.4α
  binding result: no binding
huNav1.5α
  binding result: no binding
huNav1.6α
  binding result: no binding
huNav1.8α
  binding result: no binding
huNav1.1α
  binding result: no binding
huNav1.2α
  binding result: no binding
